According to patent US20190315873A1 (AGOMAB THERAPEUTICS, published 2019):

What was measured:
[1] = target: human MET on A549 human lung carcinoma cells (human) (UniProt P08581); test: cell-based or functional assay
human MET ECD [2] = target: T1, human MET ECD (human, UniProt P08581 25-932); test: ELISA, mouse-format mAb on MET ECD
T1 construct: range 1-932; recombinant ECD made by standard protein engineering; also called hMET; human MET extracellular domain
Method: (§1) In order to directly determine whether—and to what extent—the prior art agonistic anti-MET antibodies cross-reacted with mouse MET, and to compare them to our human/mouse equivalent anti-MET antibodies, we performed an ELISA assay. Since all prior art antibodies were obtained or engineered with a mouse IgG/A format, we employed the mouse IgG/A version of 71G3, 71D6 and 71G2. Human or mouse MET ECD was immobilized in solid phase (100 ng/well in a 96-well plate) and exposed to increasing concentrations of antibodies (0-40 nM) in solution. […] Among the antibodies tested, only 71G3, 71D6 and 71G2 bound to both human and mouse MET, and they did so with indistinguishable affinities and capacities.

mouse MET ECD [3] = target: T2, mouse MET ECD (mouse, UniProt P16056 25-931); test: ELISA, mouse-format mAb on MET ECD
T2 construct: range 1-931; recombinant ECD; also called mMET; mouse MET extracellular domain
Method: as §1

[4] = target: mouse MET on MLP29 mouse liver precursor cells (mouse) (UniProt P16056); test: cell-based or functional assay
rat MET ECD (rat) = rat MET ECD (rat) (UniProt P97523); test: ELISA: MET ECD immobilized (100 ng/well), mAb in human IgG1/lambda format in solution (0-40 nM), HRP anti-human Fc
rat MET ECD (rat), sequence (P97523 25-931 limits assumed, form in doubt): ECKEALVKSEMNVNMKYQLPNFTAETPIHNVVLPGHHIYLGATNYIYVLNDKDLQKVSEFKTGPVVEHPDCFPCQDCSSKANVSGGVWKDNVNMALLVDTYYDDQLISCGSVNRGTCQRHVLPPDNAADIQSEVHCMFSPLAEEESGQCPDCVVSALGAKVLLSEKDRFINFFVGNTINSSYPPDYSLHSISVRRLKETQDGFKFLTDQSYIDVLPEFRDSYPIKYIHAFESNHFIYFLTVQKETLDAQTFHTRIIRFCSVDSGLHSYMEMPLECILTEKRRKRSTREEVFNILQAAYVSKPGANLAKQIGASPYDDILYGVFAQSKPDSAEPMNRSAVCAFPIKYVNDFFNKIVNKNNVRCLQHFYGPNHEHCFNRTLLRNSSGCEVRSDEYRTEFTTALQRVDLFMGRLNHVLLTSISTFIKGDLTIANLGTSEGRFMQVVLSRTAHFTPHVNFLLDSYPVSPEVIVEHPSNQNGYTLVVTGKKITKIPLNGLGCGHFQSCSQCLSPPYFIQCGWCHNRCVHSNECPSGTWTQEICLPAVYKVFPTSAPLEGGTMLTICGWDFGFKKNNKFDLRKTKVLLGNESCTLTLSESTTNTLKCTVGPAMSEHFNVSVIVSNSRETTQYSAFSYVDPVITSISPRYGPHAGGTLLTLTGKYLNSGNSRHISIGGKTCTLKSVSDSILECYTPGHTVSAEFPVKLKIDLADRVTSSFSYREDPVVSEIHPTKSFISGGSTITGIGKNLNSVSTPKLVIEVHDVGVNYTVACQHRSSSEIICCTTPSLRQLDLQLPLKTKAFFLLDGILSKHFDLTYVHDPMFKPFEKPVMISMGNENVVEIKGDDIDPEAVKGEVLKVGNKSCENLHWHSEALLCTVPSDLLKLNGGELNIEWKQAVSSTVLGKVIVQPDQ

monkey MET ECD = target: T3, monkey MET ECD (cynomolgus monkey, UniProt A0A2K5UM36 25-932); test: as above
T3 construct: also called simian MET; cynomolgus monkey MET
T3 sequence (A0A2K5UM36 entry or part of it limits assumed): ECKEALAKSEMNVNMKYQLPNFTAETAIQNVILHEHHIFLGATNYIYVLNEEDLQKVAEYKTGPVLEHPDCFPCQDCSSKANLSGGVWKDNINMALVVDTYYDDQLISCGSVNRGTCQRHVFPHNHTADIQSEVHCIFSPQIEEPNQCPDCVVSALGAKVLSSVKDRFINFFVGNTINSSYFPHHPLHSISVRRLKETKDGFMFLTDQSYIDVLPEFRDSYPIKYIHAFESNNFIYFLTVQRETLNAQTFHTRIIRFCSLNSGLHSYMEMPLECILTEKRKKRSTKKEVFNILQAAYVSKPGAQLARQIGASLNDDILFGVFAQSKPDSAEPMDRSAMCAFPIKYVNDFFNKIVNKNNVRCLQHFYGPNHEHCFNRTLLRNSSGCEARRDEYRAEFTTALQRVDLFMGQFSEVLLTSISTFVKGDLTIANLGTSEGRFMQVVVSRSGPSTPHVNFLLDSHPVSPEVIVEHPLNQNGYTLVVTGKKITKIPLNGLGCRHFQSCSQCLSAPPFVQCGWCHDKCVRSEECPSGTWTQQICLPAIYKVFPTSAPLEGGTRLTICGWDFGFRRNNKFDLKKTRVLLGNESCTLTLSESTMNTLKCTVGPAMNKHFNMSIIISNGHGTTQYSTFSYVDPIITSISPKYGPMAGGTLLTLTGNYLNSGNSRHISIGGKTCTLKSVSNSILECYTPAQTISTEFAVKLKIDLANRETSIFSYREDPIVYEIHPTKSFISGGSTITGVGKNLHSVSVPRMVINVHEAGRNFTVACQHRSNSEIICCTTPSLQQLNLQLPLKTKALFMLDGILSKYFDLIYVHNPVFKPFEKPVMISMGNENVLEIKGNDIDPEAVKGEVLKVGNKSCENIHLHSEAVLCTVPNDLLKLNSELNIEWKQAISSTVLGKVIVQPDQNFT
Excerpt: (§2) To this end, we investigated whether our human/mouse equivalent anti-MET antibodies cross-reacted with MET from other species, including rat (Rattus norvegicus) and cynomolgus monkey (Macaca fascicularis). […] Human and mouse MET ECD were used as controls. A restricted panel of antibodies representative of both SEMA binders (71D6, 71C3, 71D4, 71A3, 71G2) and PSI binders (76H10, 71G3) was selected. The 5D5 prior art antibody was used as control. MET ECD proteins were immobilized in solid phase (100 ng/well in a 96-well plate) and exposed to increasing concentrations (0-40 nM) of antibodies (with human constant regions) in solution. […] We conclude that the 71D6, 71C3, 71D4, 71A3, 71G2, 76H10 and 71G3 antibodies bind with similar affinity and capacity to human MET, mouse MET, rat MET and simian MET, at least as determined by ELISA.

human MET ECD [5] = target: T1, human MET ECD; test: as above
Excerpt: as §2

mouse MET ECD [6] = target: T2, mouse MET ECD; test: as above
Excerpt: as §2

[7] = target: human MET ECD mutant E (mutations 2, 3, 4) (human) (UniProt P08581); test: ELISA on mutant human MET ECD
[8] = target: human MET ECD mutant H (mutations 2, 4) (human) (UniProt P08581); test: ELISA on mutant human MET ECD
[9] = target: human MET ECD mutant D (mutations 1, 2) (human) (UniProt P08581); test: ELISA on mutant human MET ECD
[10] = target: human MET ECD mutant A (mutations 1, 2, 3) (human) (UniProt P08581); test: ELISA on mutant human MET ECD
[11] = target: human MET ECD mutant I (mutations 6, 7, 8) (human) (UniProt P08581); test: ELISA on mutant human MET ECD
[12] = target: human MET ECD mutant J (mutations 6, 7) (human) (UniProt P08581); test: ELISA on mutant human MET ECD

| Molecule | EC50 (read off the curve) (rat MET ECD (rat)) [pM] | EC50 (read off the curve) (monkey MET ECD) [pM] | EC50 (read off the curve) (human MET ECD [5]) [pM] | EC50 (read off the curve) (mouse MET ECD [6]) [pM] | % binding (EMAX) vs WT MET ECD [7] [%] | % binding (EMAX) vs WT MET ECD [8] [%] | % binding (EMAX) vs WT MET ECD [9] [%] | % binding (EMAX) vs WT MET ECD [10] [%] | also measured |
| --- | --- | --- | --- | --- | --- | --- | --- | --- | --- |
| recombinant human HGF (from UniProt P14210 32-728) (ligand) | – | – | – | – | – | – | – | – | phospho-MET ELISA EC50 [1]: 190 pM; phospho-MET ELISA EMAX (% HGF activity) [1]: 100 |
| 5D5 anti-human MET antibody, mouse IgG1/lambda format | – | – | – | – | – | – | – | – | EC50 (human MET ECD [2]): 197 pM; EMAX (human MET ECD [2]): 3.16 OD450; EC50 (mouse MET ECD [3]): > 40000 pM |
| recombinant mouse HGF (from UniProt Q08048 33-728) (ligand) | – | – | – | – | – | – | – | – | phospho-MET ELISA EC50 [4]: 230 pM; phospho-MET ELISA EMAX (% HGF activity) [4]: 100 |
| 71C3 llama-human chimeric mAb (human IgG1/lambda) (antibody, V domains shown) VH: QLQLVESGGGLVQPGGSLRLSCAASGFTFSSHAMSWVRQAPGKGLEWVSAINSGGGSTSYADSVKGRFTISRDNAKNTLYLQMNSLKPEDTAVYYCAKELRFDLARYTDYEAWDYWGQGTQVTVSS VL: SYELTQPSALSVTLGQTAKITCQGGSLGSSYAHWYQQKPGQAPVLVIYDDDSRPSGIPERFSGSSSGGTATLTISGAQAEDEGDYYCQSADSSGNAAVFGGGTHLTVLQ | 300 | ~100 | ~100 | ~100 | 59.6 | 61.6 | 102 | 99.8 | – |
| 71A3 llama-human chimeric mAb (human IgG1/lambda) (antibody, V domains shown) VH: EVQLVESGGGLVQPGGSLRLSCAASGFSFKDYDITWVRQAPGKGLEWVSTITSRSGSTSYVDSVKGRFTISGDNAKNTLYLQMNSLKPEDTAVYYCAKVYATTWDVGPLGYGMDYWGKGTLVTVSS VL: SYELTQPSALSVTLGQTAKITCQGGSLGSSYAHWYQQKPGQAPVLVIYDDDSRPSGIPERFSGSSSGGTATLTISGAQAEDEGDYYCQSADSSGNAAVFGGGTHLTVLQ | 100 | ~100 | ~90 | ~70 | 65.4 | 76.7 | 128 | 117 | – |
| 71D4 llama-human chimeric mAb (human IgG1/lambda) (antibody, V domains shown) VH: ELQLVESGGGLVQPGGSLRLSCAASGFTFSGYGMSWVRQAPGKGLEWVSDINSGGGSTSYADSVKGRFTISRDNAKNTLYLQMNSLKPEDTAVYYCAKDMRLYLARYNDYEAWDYWGQGTQVTVSS VL: SSALTQPSALSVTLGQTAKITCQGGSLGSSYAHWYQQKPGQAPVLVIYDDDSRPSGIPERFSGSSSGGTATLTISGAQAEDEGDYYCQSADSSGNAAVFGGGTHLTVLQ | 200 | ~100 | ~200 | ~200 | 57.2 | 58.7 | 120 | 114 | – |
| 71G2 llama-human chimeric mAb (human IgG1/lambda) (antibody) heavy: EVQLQESGGGLVQPGGSLRLSCAASGFTFSIYDMSWVRQAPGKGLEWVSTINSDGSSTSYVDSVKGRFTISRDNAKNTLYLQMNSLKPEDTAVYYCAKVYGSTWDVGPMGYGMDYWGKGTLVTVSSASTKGPSVFPLAPSSKSTSGGTAALGCLVKDYFPEPVTVSWNSGALTSGVHTFPAVLQSSGLYSLSSVVTVPSSSLGTQTYICNVNHKPSNTKVDKKVEPKSCDKTHTCPPCPAPELLGGPSVFLFPPKPKDTLMISRTPEVTCVVVDVSHEDPEVKFNWYVDGVEVHNAKTKPREEQYNSTYRVVSVLTVLHQDWLNGKEYKCKVSNKALPAPIEKTISKAKGQPREPQVYTLPPSRDELTKNQVSLTCLVKGFYPSDIAVEWESNGQPENNYKTTPPVLDSDGSFFLYSKLTVDKSRWQQGNVFSCSVMHEALHNHYTSEVFVPQSRKVI light: SSALTQPSALSVSLGQTARITCQGGSLGSSYAHWYQQKPGQAPVLVIYGDDSRPSGIPERFSGSSSGGTATLTISGAQAEDEDDYYCQSTDSSGNTVFGGGTRLTVLQPKAAPSVTLFPPSSEELQANKATLVCLISDFYPGAVTVAWKADSSPVKAGVETTTPSKQSNNKYAASSYLSLTPEQWKSHRSYSCQVTHEGSTVEKTVAPTECS | 100 | ~70 | ~100 | ~60 | 41.4 | 40.2 | 114 | 92.1 | – |
| DN-30 mouse anti-human MET antibody (antibody, from another filing, V domains shown) VH: QVQLQQPGTELVKPGASVKLSCKASGYTFTSYWIHWVKQRPGQGLEWIGEINPSSGRTNYNEKFKNKVTVTVDKSSTTAYMQLSNLTSEDSAVYYCASRGYWGQGTTLTVSS VL: DIVLTQSPASLAVSLGQRATISCKASQSVDYDGGSYMSWFQQRPGQPPKLLISAASNLESGIPARFSGSGSGTDFTLNIHPVEEEDVATYYCQQSYEDPLTFGAGTKLELKR | – | – | – | – | – | – | – | – | EC50 (human MET ECD [2]): 67 pM; EMAX (human MET ECD [2]): 3.06 OD450; EC50 (mouse MET ECD [3]): > 40000 pM |
| 71D6 llama-human chimeric mAb (human IgG1/lambda) (antibody) heavy: ELQLVESGGGLVQPGGSLRLSCAASGFTFSSYGMSWVRQAPGKGLEWVSAINSYGGSTSYADSVKGRFTISRDNAKNTLYLQMNSLKPEDTAVYYCAKEVRADLSRYNDYESYDYWGQGTQVTVSSASTKGPSVFPLAPSSKSTSGGTAALGCLVKDYFPEPVTVSWNSGALTSGVHTFPAVLQSSGLYSLSSVVTVPSSSLGTQTYICNVNHKPSNTKVDKKVEPKSCDKTHTCPPCPAPELLGGPSVFLFPPKPKDTLMISRTPEVTCVVVDVSHEDPEVKFNWYVDGVEVHNAKTKPREEQYNSTYRVVSVLTVLHQDWLNGKEYKCKVSNKALPAPIEKTISKAKGQPREPQVYTLPPSRDELTKNQVSLTCLVKGFYPSDIAVEWESNGQPENNYKTTPPVLDSDGSFFLYSKLTVDKSRWQQGNVFSCSVMHEALHNHYTSEVFVPQSRKVI light: QPVLNQPSALSVTLGQTAKITCQGGSLGARYAHWYQQKPGQAPVLVIYDDDSRPSGIPERFSGSSSGGTATLTISGAQAEDEGDYYCQSADSSGSVFGGGTHLTVLQPKAAPSVTLFPPSSEELQANKATLVCLISDFYPGAVTVAWKADSSPVKAGVETTTPSKQSNNKYAASSYLSLTPEQWKSHRSYSCQVTHEGSTVEKTVAPTECS | 100 | ~100 | ~100 | ~100 | 43.6 | 38.6 | 128 | 103 | – |
| 71G3 llama-human chimeric mAb (human IgG1/lambda) (antibody) heavy: QVQLVESGGGLVQPGGSLRVSCAASGFTFSTYYMSWVRQAPGKGLEWVSDIRTDGGTYYADSVKGRFTMSRDNAKNTLYLQMNSLKPEDTALYYCARTRIFPSGYDYWGQGTQVTVSSASTKGPSVFPLAPSSKSTSGGTAALGCLVKDYFPEPVTVSWNSGALTSGVHTFPAVLQSSGLYSLSSVVTVPSSSLGTQTYICNVNHKPSNTKVDKKVEPKSCDKTHTCPPCPAPELLGGPSVFLFPPKPKDTLMISRTPEVTCVVVDVSHEDPEVKFNWYVDGVEVHNAKTKPREEQYNSTYRVVSVLTVLHQDWLNGKEYKCKVSNKALPAPIEKTISKAKGQPREPQVYTLPPSRDELTKNQVSLTCLVKGFYPSDIAVEWESNGQPENNYKTTPPVLDSDGSFFLYSKLTVDKSRWQQGNVFSCSVMHEALHNHYTSEVFVPQSRKVI light: QAVVTQEPSLSVSPGGTVTLTCGLSSGSVTTSNYPGWFQQTPGQAPRTLIYNTNSRHSGVPSRFSGSISGNKAALTIMGAQPEDEADYYCSLYPGSTTVFGGGTHLTVLQPKAAPSVTLFPPSSEELQANKATLVCLISDFYPGAVTVAWKADSSPVKAGVETTTPSKQSNNKYAASSYLSLTPEQWKSHRSYSCQVTHEGSTVEKTVAPTECS | 100 | ~40 | ~80 | ~40 | – | – | – | – | % binding (EMAX) vs WT MET ECD [11]: 100%; % binding (EMAX) vs WT MET ECD [12]: 91.2% |
